B1: PI4K2A (parent)
chain: FVKDPQGRIIAVFKPKNEEPYGHL

Variants of: B1
Assay: protein stability index of a GFP-peptide fusion (GPS, HEK-293T) (PSI 1-6); higher = more stable
Conditions: c terminus: a fixed tail appended
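Note: lentivirally expressed fusions sorted by FACS into six bins by GFP to DsRed ratio, PSI derived from sequencing read proportions per bin multiplied by bin number.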

| Variant | protein stability index |
| --- | --- |
| FVKDPQGYIIAVFKPKNEEPYGHL [R8Y] | 1.6 |
| FVKDPQGRCIAVFKPKNEEPYGHL [I9C] | 1.85 |
| FVKDPQGRDIAVFKPKNEEPYGHL [I9D] | 3.44 |
| FVKDPQGREIAVFKPKNEEPYGHL [I9E] | 2.17 |
| FVKDPQGRFIAVFKPKNEEPYGHL [I9F] | 2.01 |
| FVKDPQGRKIAVFKPKNEEPYGHL [I9K] | 2.63 |
| FVKDPQGRLIAVFKPKNEEPYGHL [I9L] | 2.06 |
| FVKDPQGRNIAVFKPKNEEPYGHL [I9N] | 4.29 |
| FVKDPQGRQIAVFKPKNEEPYGHL [I9Q] | 1.67 |
| FVKDPQGRRIAVFKPKNEEPYGHL [I9R] | 1.59 |
| FVKDPQGRSIAVFKPKNEEPYGHL [I9S] | 2.61 |
| FVKDPQGRTIAVFKPKNEEPYGHL [I9T] | 2.34 |
| FVKDPQGRVIAVFKPKNEEPYGHL [I9V] | 2.56 |
| FVKDPQGRWIAVFKPKNEEPYGHL [I9W] | 2.5 |
| FVKDPQGRYIAVFKPKNEEPYGHL [I9Y] | 1.9 |
| FVKDPQGRIAAVFKPKNEEPYGHL [I10A] | 2.15 |
| FVKDPQGRICAVFKPKNEEPYGHL [I10C] | 2.23 |
| FVKDPQGRIDAVFKPKNEEPYGHL [I10D] | 1.97 |
| FVKDPQGRIFAVFKPKNEEPYGHL [I10F] | 2.79 |
| FVKDPQGRIGAVFKPKNEEPYGHL [I10G] | 2.09 |
| FVKDPQGRIHAVFKPKNEEPYGHL [I10H] | 2.33 |
| FVKDPQGRILAVFKPKNEEPYGHL [I10L] | 2.99 |
| FVKDPQGRIMAVFKPKNEEPYGHL [I10M] | 2.51 |
| FVKDPQGRINAVFKPKNEEPYGHL [I10N] | 2.35 |

| Variant | protein stability index |
| --- | --- |
| FVKDPQGRIPAVFKPKNEEPYGHL [I10P] | 2.56 |
| FVKDPQGRIQAVFKPKNEEPYGHL [I10Q] | 1.74 |
| FVKDPQGRIRAVFKPKNEEPYGHL [I10R] | 2.85 |
| FVKDPQGRISAVFKPKNEEPYGHL [I10S] | 1.97 |
| FVKDPQGRITAVFKPKNEEPYGHL [I10T] | 2.09 |
| FVKDPQGRIVAVFKPKNEEPYGHL [I10V] | 1.88 |
| FVKDPQGRIWAVFKPKNEEPYGHL [I10W] | 2.88 |
| FVKDPQGRIYAVFKPKNEEPYGHL [I10Y] | 2.28 |
| FVKDPQGRIICVFKPKNEEPYGHL [A11C] | 1.27 |
| FVKDPQGRIIDVFKPKNEEPYGHL [A11D] | 2.94 |
| FVKDPQGRIIEVFKPKNEEPYGHL [A11E] | 2.07 |
| FVKDPQGRIIFVFKPKNEEPYGHL [A11F] | 2.49 |
| FVKDPQGRIIGVFKPKNEEPYGHL [A11G] | 2.72 |
| FVKDPQGRIIHVFKPKNEEPYGHL [A11H] | 1.41 |
| FVKDPQGRIIIVFKPKNEEPYGHL [A11I] | 1.37 |
| FVKDPQGRIIKVFKPKNEEPYGHL [A11K] | 2.58 |
| FVKDPQGRIILVFKPKNEEPYGHL [A11L] | 1.61 |
| FVKDPQGRIIMVFKPKNEEPYGHL [A11M] | 2.01 |
| FVKDPQGRIIPVFKPKNEEPYGHL [A11P] | 3.18 |
| FVKDPQGRIIQVFKPKNEEPYGHL [A11Q] | 3.56 |
| FVKDPQGRIIRVFKPKNEEPYGHL [A11R] | 3.16 |
| FVKDPQGRIIVVFKPKNEEPYGHL [A11V] | 1.63 |
| FVKDPQGRIIWVFKPKNEEPYGHL [A11W] | 2.88 |
| FVKDPQGRIIYVFKPKNEEPYGHL [A11Y] | 1.32 |

| Variant | protein stability index |
| --- | --- |
| FVKDPQGRIIAAFKPKNEEPYGHL [V12A] | 3.17 |
| FVKDPQGRIIACFKPKNEEPYGHL [V12C] | 2.04 |
| FVKDPQGRIIADFKPKNEEPYGHL [V12D] | 1.56 |
| FVKDPQGRIIAEFKPKNEEPYGHL [V12E] | 1.74 |
| FVKDPQGRIIAFFKPKNEEPYGHL [V12F] | 2.84 |
| FVKDPQGRIIAGFKPKNEEPYGHL [V12G] | 2.44 |
| FVKDPQGRIIAHFKPKNEEPYGHL [V12H] | 2.9 |
| FVKDPQGRIIAIFKPKNEEPYGHL [V12I] | 1.85 |
| FVKDPQGRIIAKFKPKNEEPYGHL [V12K] | 1.38 |
| FVKDPQGRIIALFKPKNEEPYGHL [V12L] | 2.07 |
| FVKDPQGRIIAMFKPKNEEPYGHL [V12M] | 2 |
| FVKDPQGRIIAPFKPKNEEPYGHL [V12P] | 2.46 |
| FVKDPQGRIIAQFKPKNEEPYGHL [V12Q] | 2.5 |
| FVKDPQGRIIARFKPKNEEPYGHL [V12R] | 1.96 |
| FVKDPQGRIIASFKPKNEEPYGHL [V12S] | 2.72 |
| FVKDPQGRIIATFKPKNEEPYGHL [V12T] | 2.54 |
| FVKDPQGRIIAWFKPKNEEPYGHL [V12W] | 1.45 |
| FVKDPQGRIIAYFKPKNEEPYGHL [V12Y] | 1.93 |
| FVKDPQGRIIAVAKPKNEEPYGHL [F13A] | 1.55 |
| FVKDPQGRIIAVCKPKNEEPYGHL [F13C] | 2.48 |
| FVKDPQGRIIAVDKPKNEEPYGHL [F13D] | 1.43 |
| FVKDPQGRIIAVEKPKNEEPYGHL [F13E] | 2.05 |
| FVKDPQGRIIAVGKPKNEEPYGHL [F13G] | 1.39 |
| FVKDPQGRIIAVHKPKNEEPYGHL [F13H] | 2.24 |

| Variant | protein stability index |
| --- | --- |
| FVKDPQGRIIAVIKPKNEEPYGHL [F13I] | 2.5 |
| FVKDPQGRIIAVKKPKNEEPYGHL [F13K] | 1.58 |
| FVKDPQGRIIAVLKPKNEEPYGHL [F13L] | 1.96 |
| FVKDPQGRIIAVMKPKNEEPYGHL [F13M] | 1.28 |
| FVKDPQGRIIAVNKPKNEEPYGHL [F13N] | 1.99 |
| FVKDPQGRIIAVPKPKNEEPYGHL [F13P] | 2.3 |
| FVKDPQGRIIAVQKPKNEEPYGHL [F13Q] | 2.13 |
| FVKDPQGRIIAVRKPKNEEPYGHL [F13R] | 1.93 |
| FVKDPQGRIIAVSKPKNEEPYGHL [F13S] | 1.38 |
| FVKDPQGRIIAVTKPKNEEPYGHL [F13T] | 1.94 |
| FVKDPQGRIIAVVKPKNEEPYGHL [F13V] | 1.92 |
| FVKDPQGRIIAVWKPKNEEPYGHL [F13W] | 2.13 |
| FVKDPQGRIIAVYKPKNEEPYGHL [F13Y] | 2.18 |
| FVKDPQGRIIAVFAPKNEEPYGHL [K14A] | 2.09 |
| FVKDPQGRIIAVFCPKNEEPYGHL [K14C] | 2.56 |
| FVKDPQGRIIAVFDPKNEEPYGHL [K14D] | 2.49 |
| FVKDPQGRIIAVFEPKNEEPYGHL [K14E] | 2.09 |
| FVKDPQGRIIAVFFPKNEEPYGHL [K14F] | 2.67 |
| FVKDPQGRIIAVFGPKNEEPYGHL [K14G] | 2.46 |
| FVKDPQGRIIAVFHPKNEEPYGHL [K14H] | 2.03 |
| FVKDPQGRIIAVFIPKNEEPYGHL [K14I] | 1.97 |
| FVKDPQGRIIAVFLPKNEEPYGHL [K14L] | 2.08 |

Reference: the supplement of paper PMC10567573
